Results from US20140087995A1 (published 2014).
Numbered stars: 1 amine (or outer) side, 2 acyl side, 3 side chain; on linkers, the order of the positions; unused ones are H or OH. Bridge positions count the residues as written; N and C are the ends. Side chains are listed from the residue outwards. Ends that are not written are not given here. * marks the point of attachment. C20 diacid = O=C(O)CCCCCCCCCCCCCCCCCCC(=O)*; γGlu = O=C(O)[C@H](CCC(=O)[*:2])N[*:1]

T1: human calcitonin receptor (human, UniProt P30988 25-474)
T1 construct: whole, on cells; also called hCTR; hCT
T1 sequence (looked up): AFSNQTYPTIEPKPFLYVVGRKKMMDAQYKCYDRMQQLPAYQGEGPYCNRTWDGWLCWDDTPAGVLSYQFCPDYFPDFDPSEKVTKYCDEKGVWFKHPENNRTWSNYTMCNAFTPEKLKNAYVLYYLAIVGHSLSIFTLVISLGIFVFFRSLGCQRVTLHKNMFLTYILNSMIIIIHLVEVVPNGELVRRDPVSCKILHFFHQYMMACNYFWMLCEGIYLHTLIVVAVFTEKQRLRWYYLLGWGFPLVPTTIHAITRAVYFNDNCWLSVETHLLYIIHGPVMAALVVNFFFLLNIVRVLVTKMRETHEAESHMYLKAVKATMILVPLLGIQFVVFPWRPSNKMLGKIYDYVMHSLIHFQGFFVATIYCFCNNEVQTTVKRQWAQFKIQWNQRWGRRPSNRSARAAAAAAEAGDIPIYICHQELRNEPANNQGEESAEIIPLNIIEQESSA

B1: N^ε1-[(4S)-4-carboxy-4-(19-carboxynonadecanoylamino)butanoyl]-[His14,Arg17,Pro21,Pro27,Arg34]-h-amylin (peptide)
peptide: K([γGlu-C20 diacid])CNTATCATQRLAHFLRHSSPNFGAIPSSTNVGRNTY-NH2
modifications: disulfide 2-7; N-terminus assumed
SMILES: CC[C@H](C)[C@H](NC(=O)[C@H](C)NC(=O)CNC(=O)[C@H](Cc1ccccc1)NC(=O)[C@H](CC(N)=O)NC(=O)[C@@H]1CCCN1C(=O)[C@H](CO)NC(=O)[C@H](CO)NC(=O)[C@H](Cc1c[nH]cn1)NC(=O)[C@H](CCCNC(=N)N)NC(=O)[C@H](CC(C)C)NC(=O)[C@H](Cc1ccccc1)NC(=O)[C@H](Cc1c[nH]cn1)NC(=O)[C@H](C)NC(=O)[C@H](CC(C)C)NC(=O)[C@H](CCCNC(=N)N)NC(=O)[C@H](CCC(N)=O)NC(=O)[C@@H](NC(=O)[C@H](C)NC(=O)[C@@H]1CSSC[C@H](NC(=O)[C@@H](N)CCCCNC(=O)CC[C@H](NC(=O)CCCCCCCCCCCCCCCCCCC(=O)O)C(=O)O)C(=O)N[C@@H](CC(N)=O)C(=O)N[C@@H]([C@@H](C)O)C(=O)N[C@@H](C)C(=O)N[C@@H]([C@@H](C)O)C(=O)N1)[C@@H](C)O)C(=O)N1CCC[C@H]1C(=O)N[C@@H](CO)C(=O)N[C@@H](CO)C(=O)N[C@H](C(=O)N[C@@H](CC(N)=O)C(=O)N[C@H](C(=O)NCC(=O)N[C@@H](CCCNC(=N)N)C(=O)N[C@@H](CC(N)=O)C(=O)N[C@H](C(=O)N[C@@H](Cc1ccc(O)cc1)C(N)=O)[C@@H](C)O)C(C)C)[C@@H](C)O
notes: also called compound 85
B2: N^ε1-[(4S)-4-carboxy-4-(19-carboxynonadecanoylamino)butanoyl]-[His14,Arg17,Pro21,Pro27,His34]-h-amylin (peptide)
peptide: K([γGlu-C20 diacid])CNTATCATQRLAHFLRHSSPNFGAIPSSTNVGHNTY-NH2
modifications: disulfide 2-7; N-terminus assumed
SMILES: CC[C@H](C)[C@H](NC(=O)[C@H](C)NC(=O)CNC(=O)[C@H](Cc1ccccc1)NC(=O)[C@H](CC(N)=O)NC(=O)[C@@H]1CCCN1C(=O)[C@H](CO)NC(=O)[C@H](CO)NC(=O)[C@H](Cc1c[nH]cn1)NC(=O)[C@H](CCCNC(=N)N)NC(=O)[C@H](CC(C)C)NC(=O)[C@H](Cc1ccccc1)NC(=O)[C@H](Cc1c[nH]cn1)NC(=O)[C@H](C)NC(=O)[C@H](CC(C)C)NC(=O)[C@H](CCCNC(=N)N)NC(=O)[C@H](CCC(N)=O)NC(=O)[C@@H](NC(=O)[C@H](C)NC(=O)[C@@H]1CSSC[C@H](NC(=O)[C@@H](N)CCCCNC(=O)CC[C@H](NC(=O)CCCCCCCCCCCCCCCCCCC(=O)O)C(=O)O)C(=O)N[C@@H](CC(N)=O)C(=O)N[C@@H]([C@@H](C)O)C(=O)N[C@@H](C)C(=O)N[C@@H]([C@@H](C)O)C(=O)N1)[C@@H](C)O)C(=O)N1CCC[C@H]1C(=O)N[C@@H](CO)C(=O)N[C@@H](CO)C(=O)N[C@H](C(=O)N[C@@H](CC(N)=O)C(=O)N[C@H](C(=O)NCC(=O)N[C@@H](Cc1c[nH]cn1)C(=O)N[C@@H](CC(N)=O)C(=O)N[C@H](C(=O)N[C@@H](Cc1ccc(O)cc1)C(N)=O)[C@@H](C)O)C(C)C)[C@@H](C)O
notes: also called compound 81
B3: N^ε1-[(4S)-4-carboxy-4-(19-carboxynonadecanoylamino)butanoyl]-[His14,Arg17,Pro21,Pro27,Pro31,Pro34]-h-amylin (peptide)
peptide: K([γGlu-C20 diacid])CNTATCATQRLAHFLRHSSPNFGAIPSSTPVGPNTY-NH2
modifications: disulfide 2-7; N-terminus assumed
SMILES: CC[C@H](C)[C@H](NC(=O)[C@H](C)NC(=O)CNC(=O)[C@H](Cc1ccccc1)NC(=O)[C@H](CC(N)=O)NC(=O)[C@@H]1CCCN1C(=O)[C@H](CO)NC(=O)[C@H](CO)NC(=O)[C@H](Cc1c[nH]cn1)NC(=O)[C@H](CCCNC(=N)N)NC(=O)[C@H](CC(C)C)NC(=O)[C@H](Cc1ccccc1)NC(=O)[C@H](Cc1c[nH]cn1)NC(=O)[C@H](C)NC(=O)[C@H](CC(C)C)NC(=O)[C@H](CCCNC(=N)N)NC(=O)[C@H](CCC(N)=O)NC(=O)[C@@H](NC(=O)[C@H](C)NC(=O)[C@@H]1CSSC[C@H](NC(=O)[C@@H](N)CCCCNC(=O)CC[C@H](NC(=O)CCCCCCCCCCCCCCCCCCC(=O)O)C(=O)O)C(=O)N[C@@H](CC(N)=O)C(=O)N[C@@H]([C@@H](C)O)C(=O)N[C@@H](C)C(=O)N[C@@H]([C@@H](C)O)C(=O)N1)[C@@H](C)O)C(=O)N1CCC[C@H]1C(=O)N[C@@H](CO)C(=O)N[C@@H](CO)C(=O)N[C@H](C(=O)N1CCC[C@H]1C(=O)N[C@H](C(=O)NCC(=O)N1CCC[C@H]1C(=O)N[C@@H](CC(N)=O)C(=O)N[C@H](C(=O)N[C@@H](Cc1ccc(O)cc1)C(N)=O)[C@@H](C)O)C(C)C)[C@@H](C)O
B4: N^ε1-[(4S)-4-carboxy-4-(19-carboxynonadecanoylamino)butanoyl]-[His14,Arg17,Pro21,Pro27]-h-amylin (peptide)
peptide: K([γGlu-C20 diacid])CNTATCATQRLAHFLRHSSPNFGAIPSSTNVGSNTY-NH2
modifications: disulfide 2-7; N-terminus assumed
SMILES: CC[C@H](C)[C@H](NC(=O)[C@H](C)NC(=O)CNC(=O)[C@H](Cc1ccccc1)NC(=O)[C@H](CC(N)=O)NC(=O)[C@@H]1CCCN1C(=O)[C@H](CO)NC(=O)[C@H](CO)NC(=O)[C@H](Cc1c[nH]cn1)NC(=O)[C@H](CCCNC(=N)N)NC(=O)[C@H](CC(C)C)NC(=O)[C@H](Cc1ccccc1)NC(=O)[C@H](Cc1c[nH]cn1)NC(=O)[C@H](C)NC(=O)[C@H](CC(C)C)NC(=O)[C@H](CCCNC(=N)N)NC(=O)[C@H](CCC(N)=O)NC(=O)[C@@H](NC(=O)[C@H](C)NC(=O)[C@@H]1CSSC[C@H](NC(=O)[C@@H](N)CCCCNC(=O)CC[C@H](NC(=O)CCCCCCCCCCCCCCCCCCC(=O)O)C(=O)O)C(=O)N[C@@H](CC(N)=O)C(=O)N[C@@H]([C@@H](C)O)C(=O)N[C@@H](C)C(=O)N[C@@H]([C@@H](C)O)C(=O)N1)[C@@H](C)O)C(=O)N1CCC[C@H]1C(=O)N[C@@H](CO)C(=O)N[C@@H](CO)C(=O)N[C@H](C(=O)N[C@@H](CC(N)=O)C(=O)N[C@H](C(=O)NCC(=O)N[C@@H](CO)C(=O)N[C@@H](CC(N)=O)C(=O)N[C@H](C(=O)N[C@@H](Cc1ccc(O)cc1)C(N)=O)[C@@H](C)O)C(C)C)[C@@H](C)O
notes: also called compound 70
B5: N^ε1-[(4S)-4-carboxy-4-[[(4S)-4-carboxy-4-(19-carboxynonadecanoylamino)butanoyl]amino]butanoyl]-[Arg17,Pro21,Pro27,Pro31,Pro34,Arg35]-h-amylin (peptide)
peptide: K([γGlu-γGlu-C20 diacid])CNTATCATQRLANFLRHSSPNFGAIPSSTPVGPRTY-NH2
modifications: disulfide 2-7; N-terminus assumed
SMILES: CC[C@H](C)[C@H](NC(=O)[C@H](C)NC(=O)CNC(=O)[C@H](Cc1ccccc1)NC(=O)[C@H](CC(N)=O)NC(=O)[C@@H]1CCCN1C(=O)[C@H](CO)NC(=O)[C@H](CO)NC(=O)[C@H](Cc1c[nH]cn1)NC(=O)[C@H](CCCNC(=N)N)NC(=O)[C@H](CC(C)C)NC(=O)[C@H](Cc1ccccc1)NC(=O)[C@H](CC(N)=O)NC(=O)[C@H](C)NC(=O)[C@H](CC(C)C)NC(=O)[C@H](CCCNC(=N)N)NC(=O)[C@H](CCC(N)=O)NC(=O)[C@@H](NC(=O)[C@H](C)NC(=O)[C@@H]1CSSC[C@H](NC(=O)[C@@H](N)CCCCNC(=O)CC[C@H](NC(=O)CC[C@H](NC(=O)CCCCCCCCCCCCCCCCCCC(=O)O)C(=O)O)C(=O)O)C(=O)N[C@@H](CC(N)=O)C(=O)N[C@@H]([C@@H](C)O)C(=O)N[C@@H](C)C(=O)N[C@@H]([C@@H](C)O)C(=O)N1)[C@@H](C)O)C(=O)N1CCC[C@H]1C(=O)N[C@@H](CO)C(=O)N[C@@H](CO)C(=O)N[C@H](C(=O)N1CCC[C@H]1C(=O)N[C@H](C(=O)NCC(=O)N1CCC[C@H]1C(=O)N[C@@H](CCCNC(=N)N)C(=O)N[C@H](C(=O)N[C@@H](Cc1ccc(O)cc1)C(N)=O)[C@@H](C)O)C(C)C)[C@@H](C)O
B6: N^ε1-[(4S)-4-carboxy-4-[[(4S)-4-carboxy-4-(19-carboxynonadecanoylamino)butanoyl]amino]butanoyl]-[Asp14,Arg17,Pro21,Pro27,Pro34,Glu35]-h-amylin (peptide)
peptide: K([γGlu-γGlu-C20 diacid])CNTATCATQRLADFLRHSSPNFGAIPSSTNVGPETY-NH2
modifications: disulfide 2-7; N-terminus assumed
SMILES: CC[C@H](C)[C@H](NC(=O)[C@H](C)NC(=O)CNC(=O)[C@H](Cc1ccccc1)NC(=O)[C@H](CC(N)=O)NC(=O)[C@@H]1CCCN1C(=O)[C@H](CO)NC(=O)[C@H](CO)NC(=O)[C@H](Cc1c[nH]cn1)NC(=O)[C@H](CCCNC(=N)N)NC(=O)[C@H](CC(C)C)NC(=O)[C@H](Cc1ccccc1)NC(=O)[C@H](CC(=O)O)NC(=O)[C@H](C)NC(=O)[C@H](CC(C)C)NC(=O)[C@H](CCCNC(=N)N)NC(=O)[C@H](CCC(N)=O)NC(=O)[C@@H](NC(=O)[C@H](C)NC(=O)[C@@H]1CSSC[C@H](NC(=O)[C@@H](N)CCCCNC(=O)CC[C@H](NC(=O)CC[C@H](NC(=O)CCCCCCCCCCCCCCCCCCC(=O)O)C(=O)O)C(=O)O)C(=O)N[C@@H](CC(N)=O)C(=O)N[C@@H]([C@@H](C)O)C(=O)N[C@@H](C)C(=O)N[C@@H]([C@@H](C)O)C(=O)N1)[C@@H](C)O)C(=O)N1CCC[C@H]1C(=O)N[C@@H](CO)C(=O)N[C@@H](CO)C(=O)N[C@H](C(=O)N[C@@H](CC(N)=O)C(=O)N[C@H](C(=O)NCC(=O)N1CCC[C@H]1C(=O)N[C@@H](CCC(=O)O)C(=O)N[C@H](C(=O)N[C@@H](Cc1ccc(O)cc1)C(N)=O)[C@@H](C)O)C(C)C)[C@@H](C)O

Tests used:
[1] = target: T1, human calcitonin receptor; assay: SPA radioligand competition (125I-calcitonin), membranes of BHK cells with human calcitonin receptor
Method in brief: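 BHK hCTR membranes 35 ng/μL + SPA beads 0.05 mg/well; buffer 50 mM Hepes pH 7.4, 1 mM CaCl2, 5 mM MgCl₂, 0.1% OA, 0.02% Tween20. 120 min, 25° C., shaking. Scintillation count; IC50 by one-site binding competition.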

[2] = target: T1, human calcitonin receptor; assay: ratio of IC50 at human calcitonin receptor to IC50 at human amylin receptor (SPA competition assays)
Method in brief: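 Competition binding by SPA uses membrane preparations (35 ng/μL final) in pH 7.4 Hepes buffer with 1 mM CaCl2 and 5 mM MgCl₂. Incubation lasts 120 min at 25° C, and IC₅₀ comes from one-site fitting.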

Binder | IC50 [1] [nM] | Ratio hCT/hAmylin binding [2]
B1 | 80.4 | 91.8
B2 | 23.6 | 87.2
B3 | 2.04 | 24.8
B4 | 10.3 | 60.8
B5 | 42.8 | 48.6
B6 | 8.56 | 49.8
